Data: article doi:10.1101/2021.03.09.434543

B1: GB oligo (dsDNA)
DNA 1: GTCACATACACGTGTCAGCTCAG
DNA 2: CTGAGCTGACACGTGTATGTGAC

Legend:
[1] = target: OsFD7, FLIM-FRET fusion (rice (Oryza sativa)); assay: FRET or BRET
OsFTL1-GST = OsFTL1-GST (Oryza sativa (rice), UniProt B7ELI3 1-276); assay: EMSA
OsFD7 (OsbZIP62)-GST = target: T1, OsFD7 (OsbZIP62)-GST (Oryza sativa (rice), UniProt B7F384 1-274); assay: EMSA
T1 sequence: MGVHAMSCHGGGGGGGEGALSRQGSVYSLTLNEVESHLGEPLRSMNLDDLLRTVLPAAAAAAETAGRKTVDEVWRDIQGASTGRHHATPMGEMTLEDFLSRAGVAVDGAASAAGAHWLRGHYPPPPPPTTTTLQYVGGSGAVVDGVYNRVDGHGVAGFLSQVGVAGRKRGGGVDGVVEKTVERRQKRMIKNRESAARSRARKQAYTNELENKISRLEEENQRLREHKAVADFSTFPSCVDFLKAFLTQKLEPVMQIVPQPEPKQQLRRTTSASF

OsGF14b-GST = OsGF14b-GST (Oryza sativa (rice), UniProt Q7XTE8 1-262); assay: EMSA
[2] = target: OsFD7 (OsbZIP62)-GST;OsFTL1-GST (Oryza sativa (rice);Oryza sativa (rice), UniProt B7F384;B7ELI3 1-274;1-276, |); assay: EMSA
[3] = target: OsFD7 (OsbZIP62)-GST;OsFTL1-GST;OsGF14b-GST (Oryza sativa (rice);Oryza sativa …, UniProt B7F384;B7ELI3;Q7XTE8 1-274;1-276;1-262, ||); assay: EMSA

OsGF14b-GST, sequence (Q7XTE8 whole entry): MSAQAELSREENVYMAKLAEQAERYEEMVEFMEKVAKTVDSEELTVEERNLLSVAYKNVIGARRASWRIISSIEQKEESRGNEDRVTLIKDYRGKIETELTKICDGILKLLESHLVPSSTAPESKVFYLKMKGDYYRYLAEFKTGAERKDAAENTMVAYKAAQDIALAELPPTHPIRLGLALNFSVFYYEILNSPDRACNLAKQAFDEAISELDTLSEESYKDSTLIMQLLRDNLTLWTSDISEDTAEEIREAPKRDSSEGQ

Molecule | FRET efficiency [1] [%] | binding result (OsFTL1-GST) | binding result (OsFD7 (OsbZIP62)-GST) | binding result (OsGF14b-GST) | binding result [2] | binding result [3]
Hd3a, FLIM-FRET fusion (from UniProt Q93WI9 1-179) (natural protein) | 15.1 |  |  |  |  | 
OsFTL1, FLIM-FRET fusion (natural protein) | 23.3 |  |  |  |  | 
B1 |  | no binding | binds | no binding | binds | binds
